Experiments:
K562 cells = assay: Cytotoxicity of Stage 3 iNK cells by CFSE/7AAD assay; format: cell-based; conditions: added to Stage 3 medium (IL-10 20 ng/mL, IL-18 50 ng/mL), E:T 3:1, 4 hr, FIG. 13A
Protocol: hiPSCs were prepared as described in CN108373998B. On Day −1, Embryoid body (EB) formation (Stage 1-1) was carried out by placing individualized hiPSCs in E8 medium containing 10 μM Blebbistatin in T25 flasks on a bellydancer and culture overnight. On Day 0, lateral mesoderm differentiation (Stage 1-2) was initiated by changing the medium to a Stage 1-2 differentiation medium comprising IF-4 basal medium and supplemented with BMP4 (25 ng/mL), VEGF (15 ng/ml), bFGF (0.5 ng/mL) and CHIR99021 (4 μM) for 2 days. On Day 2, lateral mesoderm differentiation (Stage 1-3) continued for 1 day in a Stage 1-3 differentiation medium comprising IF-4 basal medium and supplemented with BMP4 (25 ng/mL), VEGF (50 ng/mL) and bFGF (0.5 ng/mL) and CHIR99021 (1 μM). On Day 3, HE specification (Stage 1-4) was initiated by adding a Stage 1-4 differentiation medium comprising IF-4 basal medium and supplemented with VEGF (15 ng/ml), bFGF (5 ng/ml), XAV939 (5 μM) for 1 day. […] On Day 11 of co-culture, iNK cells were collected and stained with CD56-PE antibody (BD, #555516), the percentage of CD56+ cells was analyzed by flow cytometry. The cytotoxicity of Stage 3 iNK cells towards K562 cells was detected by CFSE/7AAD assay after 4 hr co-culture at E:T of 3:1.

iNK cells = assay: Stage 3 expansion of iNK cells co-cultured with feeder cells; format: cell-based, human; conditions: IL-18 (10-50 ng/mL) combined with IL-2 (100 IU/mL) vs IL-2 only, Stage 3, 2 weeks, FIG. 13B
Protocol: hiPSCs were prepared as described in CN108373998B. On Day −1, Embryoid body (EB) formation (Stage 1-1) was carried out by placing individualized hiPSCs in E8 medium containing 10 μM Blebbistatin in T25 flasks on a bellydancer and culture overnight. On Day 0, lateral mesoderm differentiation (Stage 1-2) was initiated by changing the medium to a Stage 1-2 differentiation medium comprising IF-4 basal medium and supplemented with BMP4 (25 ng/ml), VEGF (15 ng/ml), bFGF (0.5 ng/ml) and CHIR99021 (4 μM) for 2 days. On Day 2, lateral mesoderm differentiation (Stage 1-3) continued for 1 day in a Stage 1-3 differentiation medium comprising IF-4 basal medium and supplemented with BMP4 (25 ng/ml), VEGF (15 ng/mL) and bFGF (0.5 ng/mL) and CHIR99021 (1 μM). On Day 3, HE specification (Stage 1-4) was initiated by adding a Stage 1-4 differentiation medium comprising IF-4 basal medium and supplemented with VEGF (15 ng/ml), bFGF (5 ng/ml), XAV939 (5 μM) for 1 day. On Day 4 (the end of Stage 1-4), HP differentiation (Stage 1-5) in was initiated by adding a Stage 1-5 differentiation medium comprising IF-4 basal medium and supplemented with SCF (10 ng/ml), Flt3L (10 ng/ml), VEGF (15 ng/ml) and bFGF (5 ng/mL). […] On Day 14 of co-culture, iNK cells were collected and stained with CD56-PE antibody (BD, #555516), and the percentage of CD56+ cells was analyzed by flow cytometry. […]

Substance: IL-18: interleukin added to Stage 3 expansion and maturation medium
- cytotoxicity of iNK cells (K562 cells): significantly improve
- expansion fold of iNK cells (iNK cells): improve the expansion fold

— US20240352419A1, “METHODS AND COMPOSITIONS FOR DIFFERENTIATION OF PLURIPOTENT STEM CELLS AND DERIVED HEMATOPOIETIC LINEAGE CELLS” (NUWACELL BIOTECHNOLOGIES CO., LTD., priority 2022, published 2024)
